Results published in patent US20080311122A1 (AstraZeneca / MedImmune, published 2008).

T1: HMG2 (UniProt P40673 2-209, limits assumed)
T1 construct: also called HMGB2; HMBG2
T1 sequence (looked up): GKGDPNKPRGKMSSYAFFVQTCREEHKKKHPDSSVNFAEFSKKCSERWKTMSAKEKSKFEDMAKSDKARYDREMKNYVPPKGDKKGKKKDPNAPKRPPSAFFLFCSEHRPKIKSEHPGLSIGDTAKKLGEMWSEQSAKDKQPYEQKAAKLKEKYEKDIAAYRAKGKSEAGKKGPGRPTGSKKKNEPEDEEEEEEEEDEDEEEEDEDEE

T2: recombinant HMG1 purified from E. coli as a calmodulin binding protein (CBP) fusion protein (human, UniProt A9RA84 1-215 (Papio anubis entry))
T2 construct: also called rHMG1; rHMGB1
T2 sequence: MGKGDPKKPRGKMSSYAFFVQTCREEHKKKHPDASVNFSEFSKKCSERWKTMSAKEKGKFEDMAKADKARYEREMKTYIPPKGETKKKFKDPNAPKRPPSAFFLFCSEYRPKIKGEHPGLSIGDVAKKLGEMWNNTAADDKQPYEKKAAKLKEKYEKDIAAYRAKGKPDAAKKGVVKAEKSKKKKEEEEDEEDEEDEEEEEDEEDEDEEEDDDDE

T3: HMG1 B Box peptide amino acids 150-183
T3 peptide: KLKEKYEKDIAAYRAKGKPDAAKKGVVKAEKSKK

B1: anti-HMG1 antibody S2 (antibody, V domains shown)
VH: EVQLLESGGGLVQPGGSLRLSCAASGFTFSGYMMVWVRQAPGKGLEWVSRISPSGGQTGYADSVKGRFTISRDNSKNTLYLQMNSLRAEDTAVYYCAREEGGSYGAFDIWGQGTMVTVSS
VL: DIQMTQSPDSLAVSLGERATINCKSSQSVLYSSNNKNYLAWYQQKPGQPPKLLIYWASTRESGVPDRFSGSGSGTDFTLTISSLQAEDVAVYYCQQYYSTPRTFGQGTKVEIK
notes: also called ATCC PTA-6142
B2: anti-HMG1 antibody S6 (antibody, V domains shown)
VH: EVQLLESGGGLVQPGGSLRLSCAASGFTFSWYDMSWVRQAPGKGLEWVSRISPSGGYTMYADSVKGRFTISRDNSKNTLYLQMNSLRAEDTAVYYCARLEVGATSGGTAFDIWGQGTMVTVSS
VL: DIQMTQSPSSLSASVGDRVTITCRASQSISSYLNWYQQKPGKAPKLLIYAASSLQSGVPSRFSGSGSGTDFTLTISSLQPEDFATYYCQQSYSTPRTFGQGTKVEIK
notes: also called ATCC PTA-6143
B3: anti-HMG1 antibody G4 (antibody, V domains shown)
VH: EVQLLESGGGLVQPGGSLRLSCAASGFTFSWYDMTWVRQAPGKGLEWVSSISPSGGYTKYADSVKGRFTISRDNSKNTLYLQMNSLRAEDTAVYYCTTEFYDYLDVWGKGTTVTVSS
VL: DIQMTQSPGTLSLSPGEGATLSCRASQSVSSTYLAWYQQKPGQAPRLLIYEASKRATGTPARFSGSGSGTDFTLSISSLEPEDFAVYYCQHRHNWPPQWTFGQGTKVEVK
notes: also called ATCC PTA-6258
B4: anti-HMG1 antibody S16 (antibody, V domains shown)
VH: EVQLLESGGGLVQPGGSLRLSCAASGFTFSWYSMLWVRQAPGKGLEWVSYISPSGGFTNYADSVKGRFTISRDNSKNTLYLQMNSLRAEDTAVYYCARWDYNSGWYYDHWGQGTLVTVSS
VL: DIQMTQSPDTLSLSPGERATLSCRASQSVNSRNLAWYQQKPGQAPRLLIYGASTRATGIPDRFSGSVSGTEFTLTISSLQPDDFATYYCQQYNSYFTFGQGTKLEIK
notes: also called ATCC PTA-6259

target: T1, HMG2; assay: ELISA, wells coated with HMGB2 at 5 ug/mL, OD 490
Procedure: Binding to HMG1 vs. HMG2: Ultra high-binding ELISA plates (ThermoLab systems, #3855) were coated with either 5 ug/mL of Calf thymus HMGB1 or HMBG2 diluted in 10 mM Phosphate buffered saline (PBS), pH 7.2 and incubate overnight at 4 degrees. The plates were washed twice with Ca and Mg free PBS and 100 microliters of anti-HMGB1 antibody diluted in 10 mM PBS, pH 7.2+1% bovine serum albumin (BSA) to a final concentration of 10 ug/mL was added to each well and the plates were incubated 1 hour at room temperature. The wells were washed three times with 100 μl of PBS, pH 7.2. HRP labeled goat-anti-human IgG Kappa-chain (KPL, #14-10-10) and goat-anti-human IgG Lambda-chain (KPL, #14-10-11) were diluted in 10 mM PBS+1% BSA 1:1000 and 100 μl were added to each well and incubated for 1 hour at room temperature. The wells were then washed three times with 100 μl of PBS, pH 7.2. OPD substrate (Pierce chemical company, #34006) was prepared following the manufacturers instructions and 100 μl of prepared substrate was added to each well and the plates incubated at room temperature in the dark for 20-30 minutes. The reaction was stopped with the addition of 100 μl of 2M H₂SO₄, and the plates read on a plate reader at a wavelength of 490 nm.

Row | Binder | binding result
1 | B1 | no binding (tested: 10 ug/mL (not on the sheet))
2 | B2 | no binding (tested: 10 ug/mL (not on the sheet))
3 | B3 | no binding (tested: 10 ug/mL (not on the sheet))

target: T2, recombinant HMG1 purified from E. coli …; assay: ELISA, rHMG1 preincubated with antibody, coated RAGE-Fc
Procedure: HMG1 binding to RAGE-Ig by ELISA: 50 μl/well of RAGE-Fc fusion protein at 5 μg/ml in PBS was added to each well of an ELISA plate and incubated overnight at 4° C. The plate was then blocked with 200 μl of 5% milk at 37° C. for 1 hr and washed 3× with PBS/Tween. 50 μl/well of diluted HMGB1 solution. For dose curves, HMGB1 concentrations started at 4 ug/ml in PBS. For antibody blocking the HMGB1 was preincubated in another plate with human anti-HMG1 antibodies or buffer, then transferred to the RAGE-coated plate. The plates were then incubated at room temperature for 2 hours and washed 3×. To detect any HMG1 bound to the immobilized RAGE-Fc a mixture of biotinylated mouse anti-HMG1 mAbs (10D4, 4H11, 3E10 and 5C12) each at 1 ug/ml, total Ab: 4 ug/ml, were added to each well and the plate was incubated for 1 hour at room temperature. The plate was then washed and Strepavidin-HPR was added to each well and incubated 15 min. The plate was then washed 3× and blotted dry. 100 μl of TMB developing agent was added and the plate read at 650 nm. Values were calculated as percent of inhibition with HMG1 alone equal to 0% inhibition. The data in FIG. 9 and summarized in Table 1 represent the average of two separate experiments.

Row | Binder | percent inhibition of HMG1 binding to RAGE-Fc
4 | B1 | ≥ 35%
5 | B2 | ≥ 35%
6 | B4 | ≥ 35%

Target: T3, HMG1 B Box peptide amino acids 150-183
Assay: ELISA, wells coated with HMG1 B Box peptide 150-183 at 10 ug/ml
In short: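 Biotinylated peptides captured on avidin-coated wells (1% BSA block, 30 min, room temperature), then antibodies added in serial dilution from 10 μg/ml; for the coated-peptide format, plates blocked with 4% milk/PBS 1 h at 37 °C. Bound antibody detected with anti-human IgG-HRP and TMB, absorbance at 450 nm.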

Row | Binder | binding result
7 | B1 | no binding (tested: 10 ug/ml (log 1.00))
8 | B2 | no binding (tested: 10 ug/ml (log 1.00))
9 | B3 | no binding (tested: 10 ug/ml (log 1.00))

target: T2, recombinant HMG1 purified from E. coli …; assay: cell-based or functional assay

Row | Binder | IC50, inhibition of rHMG1 stimulated IL-1β release from human PBMC | IC50, inhibition of rHMG1 stimulated IL-6 release from human PBMC | IC50, inhibition of rHMG1 stimulated TNF-α release from human PBMC | IC50, inhibition of HMG1 stimulated NO release from macrophages | IC50, inhibition of rHMG1 stimulated IL-12 release from human PBMC
10 | B1 | 220 ng/mL | 0.163 nM | 64.2 ng/mL |  | 
11 | B2 | 23.1 ng/mL | 0.174 nM | 18.2 ng/mL | 4150 ng/mL | 
12 | B3 | 5020 ng/mL | 0.9 nM | 5510 ng/mL |  | 715 ng/mL
13 | B4 | 6050 ng/mL | 0.56 nM | 1440 ng/mL |  | 1240 ng/mL

target: T2, recombinant HMG1 purified from E. coli …; assay: BIAcore, mAb immobilized, HMG1 injected, steady-state model
In short: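 Each mAb amine-coupled to a CM5 chip beside a reference flow cell. Twofold serial dilutions of recombinant HMG1 were injected at slow flow, and surfaces regenerated with 1M NaCl-50 mM NaOH. Affinity was derived from binding curves fitted to a steady-state model.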

Row | Binder | Kd
14 | B1 | 36 nM
15 | B2 | 39 nM
16 | B3 | 30 nM
17 | B4 | 23 nM
